Measured values: paper PMC2408616, “Modular Organization and Combinatorial Energetics of Proline–Tyrosine Nuclear Localization Signals” (PLoS Biology, 2008)
Where no end group is shown, it is not given here. MBP = not defined here

T1: Kap104p (yeast (S. cerevisiae), UniProt P38217 1-918)
T1 construct: Kap104p, yeast homolog of Kapβ2; gene a gift from J. Aitchison, subcloned into pGEX-Tev; also called yeast Karyopherin β2 homolog; source: E. coli Rosetta(DE3)pLysS, purified (glutathione sepharose, TEV cleavage, anion exchange, gel filtration)
T1 sequence (looked up): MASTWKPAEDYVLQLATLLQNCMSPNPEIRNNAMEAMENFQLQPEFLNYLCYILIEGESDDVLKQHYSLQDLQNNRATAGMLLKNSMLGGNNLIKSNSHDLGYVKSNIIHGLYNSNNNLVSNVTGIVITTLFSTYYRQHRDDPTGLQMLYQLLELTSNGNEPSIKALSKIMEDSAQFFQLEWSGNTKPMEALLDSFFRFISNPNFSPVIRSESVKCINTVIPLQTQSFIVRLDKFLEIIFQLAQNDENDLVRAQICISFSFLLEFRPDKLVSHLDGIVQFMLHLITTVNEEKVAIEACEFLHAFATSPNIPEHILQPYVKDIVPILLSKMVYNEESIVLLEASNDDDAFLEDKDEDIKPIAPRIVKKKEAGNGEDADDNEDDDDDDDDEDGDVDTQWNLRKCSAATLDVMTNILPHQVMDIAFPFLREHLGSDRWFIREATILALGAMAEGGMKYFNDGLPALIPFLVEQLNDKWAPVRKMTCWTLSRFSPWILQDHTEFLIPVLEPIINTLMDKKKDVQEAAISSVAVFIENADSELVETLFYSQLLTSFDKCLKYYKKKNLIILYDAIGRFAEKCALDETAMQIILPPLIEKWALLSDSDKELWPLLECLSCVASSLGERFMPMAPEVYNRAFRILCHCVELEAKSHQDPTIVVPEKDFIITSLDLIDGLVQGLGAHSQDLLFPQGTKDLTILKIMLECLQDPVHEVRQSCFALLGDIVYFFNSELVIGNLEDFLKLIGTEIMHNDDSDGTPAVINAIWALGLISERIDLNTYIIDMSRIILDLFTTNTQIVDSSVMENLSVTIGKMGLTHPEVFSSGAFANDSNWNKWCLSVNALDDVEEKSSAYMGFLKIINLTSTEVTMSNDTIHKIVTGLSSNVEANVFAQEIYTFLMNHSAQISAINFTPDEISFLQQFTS


Target: T1, Kap104p
Test: ITC; 90–350 μM MBP-NLS titrated into 9–35 μM Kap104p in the cell; 20 °C; 20 mM Tris pH 7.5, 100 mM NaCl, 2 mM β-mercaptoethanol, 10% glycerol; 35 injections of 8 μl; single-site model
Conditions: both partners purified

Binder | binding result | other results
MBP–Nab2p NLS (domain or fragment, S. cerevisiae, UniProt P32505 201-251, looked up, Nab2p NLS, residues 201-251 (methods; the results say 201-250); also called Nab2p NLS wild type; source: E. coli BL21(DE3), purified (amylose resin, cation exchange)) DNSQRFTQRGGGAVGKNRRGGRGGNRGGRNNNSTRFNPLAKALGMAGESNM | – | Kd: 0.037 µM
MBP–Nab2p NLS 238PL239/AA (domain or fragment, S. cerevisiae, UniProt P32505 201-251, looked up, Nab2p NLS, residues 201-251; source: E. coli BL21(DE3), purified (amylose resin, cation exchange)) DNSQRFTQRGGGAVGKNRRGGRGGNRGGRNNNSTRFNAAAKALGMAGESNM | – | Kd: 0.376 µM
MBP–Nab2p NLS 238PL239/PY (domain or fragment, S. cerevisiae, UniProt P32505 201-251, looked up, reading uncertain, Nab2p NLS, residues 201-251; also called L239Y; source: E. coli BL21(DE3), purified (amylose resin, cation exchange)) {MBP}-DNSQRFTQRGGGAVGKNRRGGRGGNRGGRNNNSTRFNPYAKALGMAGESNM | – | Kd: 0.013 µM
MBP–Nab2p NLS F236A (domain or fragment, S. cerevisiae, UniProt P32505 201-251, looked up, Nab2p NLS, residues 201-251; source: E. coli BL21(DE3), purified (amylose resin, cation exchange)) DNSQRFTQRGGGAVGKNRRGGRGGNRGGRNNNSTRANPLAKALGMAGESNM | – | KD,mutant/KD,wild type: 8
MBP–Nab2p NLS F236L (domain or fragment, S. cerevisiae, UniProt P32505 201-251, looked up, Nab2p NLS, residues 201-251; source: E. coli BL21(DE3), purified (amylose resin, cation exchange)) DNSQRFTQRGGGAVGKNRRGGRGGNRGGRNNNSTRLNPLAKALGMAGESNM | binds | –
MBP–Nab2p NLS K216A (domain or fragment, S. cerevisiae, UniProt P32505 201-251, looked up, Nab2p NLS, residues 201-251; source: E. coli BL21(DE3), purified (amylose resin, cation exchange)) DNSQRFTQRGGGAVGANRRGGRGGNRGGRNNNSTRFNPLAKALGMAGESNM | binds | –
MBP–Nab2p NLS L239D (domain or fragment, S. cerevisiae, UniProt P32505 201-251, looked up, Nab2p NLS, residues 201-251; source: E. coli BL21(DE3), purified (amylose resin, cation exchange)) DNSQRFTQRGGGAVGKNRRGGRGGNRGGRNNNSTRFNPDAKALGMAGESNM | – | fold decrease in affinity against wild type: 11 fold
MBP–Nab2p NLS L239E (domain or fragment, S. cerevisiae, UniProt P32505 201-251, looked up, Nab2p NLS, residues 201-251; source: E. coli BL21(DE3), purified (amylose resin, cation exchange)) DNSQRFTQRGGGAVGKNRRGGRGGNRGGRNNNSTRFNPEAKALGMAGESNM | – | fold decrease in affinity against wild type: 7 fold
MBP–Nab2p NLS L239F (domain or fragment, S. cerevisiae, UniProt P32505 201-251, looked up, Nab2p NLS, residues 201-251; also called L239 to F; source: E. coli BL21(DE3), purified (amylose resin, cation exchange)) DNSQRFTQRGGGAVGKNRRGGRGGNRGGRNNNSTRFNPFAKALGMAGESNM | binds | –
MBP–Nab2p NLS L239G (domain or fragment, S. cerevisiae, UniProt P32505 201-251, looked up, Nab2p NLS, residues 201-251; source: E. coli BL21(DE3), purified (amylose resin, cation exchange)) DNSQRFTQRGGGAVGKNRRGGRGGNRGGRNNNSTRFNPGAKALGMAGESNM | binds | –
MBP–Nab2p NLS L239H (domain or fragment, S. cerevisiae, UniProt P32505 201-251, looked up, Nab2p NLS, residues 201-251; also called L239 to H; source: E. coli BL21(DE3), purified (amylose resin, cation exchange)) DNSQRFTQRGGGAVGKNRRGGRGGNRGGRNNNSTRFNPHAKALGMAGESNM | binds | –
MBP–Nab2p NLS L239I (domain or fragment, S. cerevisiae, UniProt P32505 201-251, looked up, Nab2p NLS, residues 201-251; source: E. coli BL21(DE3), purified (amylose resin, cation exchange)) DNSQRFTQRGGGAVGKNRRGGRGGNRGGRNNNSTRFNPIAKALGMAGESNM | binds | –
MBP–Nab2p NLS L239K (domain or fragment, S. cerevisiae, UniProt P32505 201-251, looked up, Nab2p NLS, residues 201-251; also called L239 to K; source: E. coli BL21(DE3), purified (amylose resin, cation exchange)) DNSQRFTQRGGGAVGKNRRGGRGGNRGGRNNNSTRFNPKAKALGMAGESNM | binds | –
MBP–Nab2p NLS L239M (domain or fragment, S. cerevisiae, UniProt P32505 201-251, looked up, Nab2p NLS, residues 201-251; also called L239 to M; source: E. coli BL21(DE3), purified (amylose resin, cation exchange)) DNSQRFTQRGGGAVGKNRRGGRGGNRGGRNNNSTRFNPMAKALGMAGESNM | binds | –
MBP–Nab2p NLS L239N (domain or fragment, S. cerevisiae, UniProt P32505 201-251, looked up, Nab2p NLS, residues 201-251; also called L239 to N; source: E. coli BL21(DE3), purified (amylose resin, cation exchange)) DNSQRFTQRGGGAVGKNRRGGRGGNRGGRNNNSTRFNPNAKALGMAGESNM | binds | –
MBP–Nab2p NLS L239Q (domain or fragment, S. cerevisiae, UniProt P32505 201-251, looked up, Nab2p NLS, residues 201-251; also called L239 to Q; source: E. coli BL21(DE3), purified (amylose resin, cation exchange)) DNSQRFTQRGGGAVGKNRRGGRGGNRGGRNNNSTRFNPQAKALGMAGESNM | binds | –
MBP–Nab2p NLS L239R (domain or fragment, S. cerevisiae, UniProt P32505 201-251, looked up, Nab2p NLS, residues 201-251; also called L239 to R; source: E. coli BL21(DE3), purified (amylose resin, cation exchange)) DNSQRFTQRGGGAVGKNRRGGRGGNRGGRNNNSTRFNPRAKALGMAGESNM | binds | –
MBP–Nab2p NLS L239S (domain or fragment, S. cerevisiae, UniProt P32505 201-251, looked up, Nab2p NLS, residues 201-251; also called L239 to S; source: E. coli BL21(DE3), purified (amylose resin, cation exchange)) DNSQRFTQRGGGAVGKNRRGGRGGNRGGRNNNSTRFNPSAKALGMAGESNM | binds | –
MBP–Nab2p NLS L239T (domain or fragment, S. cerevisiae, UniProt P32505 201-251, looked up, Nab2p NLS, residues 201-251; also called L239 to T; source: E. coli BL21(DE3), purified (amylose resin, cation exchange)) DNSQRFTQRGGGAVGKNRRGGRGGNRGGRNNNSTRFNPTAKALGMAGESNM | binds | –
MBP–Nab2p NLS L239V (domain or fragment, S. cerevisiae, UniProt P32505 201-251, looked up, Nab2p NLS, residues 201-251; also called L239 to V; source: E. coli BL21(DE3), purified (amylose resin, cation exchange)) DNSQRFTQRGGGAVGKNRRGGRGGNRGGRNNNSTRFNPVAKALGMAGESNM | binds | –
